Measurements: IntAct's records for PubMed 15582318

B1: Telethonin (Homo sapiens), O15273 (parent)
chain: MATSELSCEVSEENCERREAFWAEWKDLTLSTRPEEGCSLHEEDTQRHETYHQQGQCQVLVQRSPWLMMRMGILGRGLQEYQLPYQRVLPLPIFTPAKMGATKEEREDTPIQLQELLALETALGGQCVDRQEVAEITKQLPPVVPVSKPGALRRSLSRSMSQEAQRG
partner: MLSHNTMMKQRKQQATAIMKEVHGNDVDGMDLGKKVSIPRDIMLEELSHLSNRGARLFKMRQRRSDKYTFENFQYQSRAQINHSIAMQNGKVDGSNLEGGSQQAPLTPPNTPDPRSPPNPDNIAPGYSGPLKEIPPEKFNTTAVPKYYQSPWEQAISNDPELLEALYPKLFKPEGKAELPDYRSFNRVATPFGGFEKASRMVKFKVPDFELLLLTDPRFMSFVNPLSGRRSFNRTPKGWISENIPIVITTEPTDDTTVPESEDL
B2: Telethonin (Homo sapiens), O15273 (parent)
chain: B1 chain

Variants of: B1
Conditions: with myoz2_human MYOZ2, Q9NPC6

Variant | effect of a mutation on the interaction
MATSELSCEVSEENCERREAFWAEWKDLTLSTRPEEGCSLHEEDTQRHETYHQQGQCQVLVQRSPWLMMRMGILGRGLQEYQLPYQRVLPLPIFTPAKMGATKEEREDTPIQLQELLALETALGGQCVDRQQVAEITKQLPPVVPVSKPGALRRSLSRSMSQEAQRG [E132Q] | decreasing interaction strength
MATSELSCEVSEENCERREAFWAEWKDLTLSTRPEEGCSLHEEDTQRHETYHQQGQCQVLVQRSPWLMMRMGILGRGLQEYQLPYQRVLPLPIFTPAKMGATKEEREDTPIQLQELLALETALGGQCVDRQEVAEITKQLPPVVPVSKPGALHRSLSRSMSQEAQRG [R153H] | increasing interaction strength

Now from value to variant:

effect of a mutation on the interaction | Variant
increasing interaction strength | MATSELSCEVSEENCERREAFWAEWKDLTLSTRPEEGCSLHEEDTQRHETYHQQGQCQVLVQRSPWLMMRMGILGRGLQEYQLPYQRVLPLPIFTPAKMGATKEEREDTPIQLQELLALETALGGQCVDRQEVAEIIKQLPPVVPVSKPGALRRSLSRSMSQEAQRG [T137I]
decreasing interaction strength | MATSELSCEVSEENCERREAFWAEWKDLTLSTRPEEGCSLHEEDTQRHETYHQQGQCQVLVQRSPWLMMRMGILGRGLQEYQLPYQQVLPLPIFTPAKMGATKEEREDTPIQLQELLALETALGGQCVDRQEVAEITKQLPPVVPVSKPGALRRSLSRSMSQEAQRG [R87Q]

Variants of: B2
Conditions: with csrp3_human CSRP3, P50461
Sequence of csrp3_human CSRP3, P50461 (P50461 whole entry): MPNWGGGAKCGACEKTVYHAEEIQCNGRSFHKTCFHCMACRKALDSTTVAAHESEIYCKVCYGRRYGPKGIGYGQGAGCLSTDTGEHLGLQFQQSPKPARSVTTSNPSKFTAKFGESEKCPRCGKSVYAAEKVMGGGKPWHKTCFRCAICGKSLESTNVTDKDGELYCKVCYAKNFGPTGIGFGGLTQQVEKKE

effect of a mutation on the interaction | Variant
decreasing interaction strength | MATSELSCEVSEENCERREAFWAEWKDLTLSTRPEEGCSLHEEDTQRHETYHQQGQCQVLVQRSPWLMMRMGILGRGLQEYQLPYQRVLPLPIFTPAKMGATKEEREDTPIQLQELLALETALGGQCVDRQQVAEITKQLPPVVPVSKPGALRRSLSRSMSQEAQRG [E132Q]
decreasing interaction strength | MATSELSCEVSEENCERREAFWAEWKDLTLSTRPEEGCSLHEEDTQRHETYHQQGQCQVLVQRSPWLMMRMGILGRGLQEYQLPYQQVLPLPIFTPAKMGATKEEREDTPIQLQELLALETALGGQCVDRQEVAEITKQLPPVVPVSKPGALRRSLSRSMSQEAQRG [R87Q]

Variants of: B2
Conditions: with titin_human TTN

effect of a mutation on the interaction | Variant
decreasing interaction strength | MATSELSCEVSEENCERREAFWAEWKDLTLSTRPEEGCSLHEEDTQRHETYHQQGQCQVLVQRSPWLMMRMGILGRGLQEYQLPYQRVLPLPIFTPAKMGATKEEREDTPIQLQELLALETALGGQCVDRQQVAEITKQLPPVVPVSKPGALRRSLSRSMSQEAQRG [E132Q]
decreasing interaction strength | MATSELSCEVSEENCERREAFWAEWKDLTLSTRPEEGCSLHEEDTQRHETYHQQGQCQVLVQRSPWLMMRMGILGRGLQEYQLPYQQVLPLPIFTPAKMGATKEEREDTPIQLQELLALETALGGQCVDRQEVAEITKQLPPVVPVSKPGALRRSLSRSMSQEAQRG [R87Q]
increasing interaction strength | MATSELSCEVSEENCERREAFWAEWKDLTLSTRPEEGCSLHEEDTQRHETYHQQGQCQVLVQRSPWLMMRMGILGRGLQEYQLPYQRVLPLPIFTPAKMGATKEEREDTPIQLQELLALETALGGQCVDRQEVAEITKQLPPVVPVSKPGALHRSLSRSMSQEAQRG [R153H]
increasing interaction strength | MATSELSCEVSEENCERREAFWAEWKDLTLSTRPEEGCSLHEEDTQRHETYHQQGQCQVLVQRSPWLMMRMGILGRGLQEYQLPYQRVLPLPIFTPAKMGATKEEREDTPIQLQELLALETALGGQCVDRQEVAEIIKQLPPVVPVSKPGALRRSLSRSMSQEAQRG [T137I]
